In the nanobody polyreactivity screen of Harvey et al. (2022):

Assay: yeast display, Sf9 membrane polyspecificity reagent, FACS + sequencing; frameworks hold sequencing errors
In short: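 Galactose-induced (36–48 hours) yeast carrying a synthetic nanobody display library were exposed to 10% biotinylated, detergent-solubilized Sf9 membrane reagent at 4 °C for 1 hour. FACS followed streptavidin microbead enrichment, using low and high (top ~1%) gates for expression (anti-HA) and reagent binding (streptavidin). Colony PCR, MiSeq 2 × 250 sequencing and CDR-length filtering followed. Labels for polyreactivity reflect the gate of origin.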

Sequence | polyreactivity (PSR sort gate)
QVQLVESGGGLVQAGGSLRLSCAASGLTFHRYAMGWYRQAPGKERELVADISSGDSTNYADSVKGRFTISRDNAKNTVYLQMNSLKPEDTAVYYCNTDGYIYRYRFDYWGQGTQVTVSS | low polyreactivity
QVQLVESGGGLVQAGGSLRLSCAASGLTFIGNAMGWYRQAPGKERELVAAITWSGTSTYYADSVKGRFTISRDNAKNTVYLQMNSLKPEDTAVYYCAAVLRRLGVSYYYWGQGTQVTVSS | high polyreactivity
QVQLVESGGGLVQAGGSLRLSCAASGLTFIGYVMGWYRQAPGKERELVAAISGSGGSTYYADSVKGRFTISRDNAKNTVYLQMNSLKPEDTAVYYCAARSRVLTRYDYWGQGTQVTVSS | high polyreactivity
QVQLVESGGGLVQAGGSLRLSCAASGLTFIVYAMAWYRQAPGKERELVADITWSGGSTYYADSVKGRFTISRDNAKNTVYLQMNSLKPEDTAVYYCNRQSAKIMDYWGQGTQVTVSS | low polyreactivity
QVQLVESGGGLVQAGGSLRLSCAASGLTFIYYAMGWYRQAPGKEREMVAAISTSGASTYYADSVKGRFTISRDNAKNTVYLQMNSLKPEVSAVYYCNGEYFGEYRDYGYWGQGTLVTVSS | low polyreactivity
QVQLVESGGGLVQAGGSLRLSCAASGLTFKTYAMGWYRQAPGKERELVAAITRNGGSTYYADSVKGRFTISRDNAKNTVYLQMNSLKPEDTAVYYCAARRAYDNRHDYWGQGTQVTVSS | high polyreactivity
QVQLVESGGGLVQAGGSLRLSCAASGLTFKWYAMGWYRQAPGKERELVAASSRDGSTYYADSVKGRFTLSRDNAKNTVYLQMTSLKPEDTAVDYCAADIWPSSLLADEYDYWGQGTQVTVSS | high polyreactivity
QVQLVESGGGLVQAGGSLRLSCAASGLTFKYYAMGWYRQAPGKESELVAAITSTGGRTYYADSVKGRFTISRDNAKNTVYLQMNSLKPEDTAVYYCAAYYVGSSKYDSWGQGTQVTVSS | low polyreactivity
QVQLVESGGGLVQAGGSLRLSCAASGLTFNAYAMGWYRQAPGKERELVADITTSDGSTFYADSVKGRFTISRDNAKNTVYLQMNSLKPEDTAVYYCNADAYGWYSGPWFKWLLWYDYWGQGTQVTVSS | low polyreactivity
QVQLVESGGGLVQAGGSLRLSCAASGLTFNRYAMGWYRQARGKERELVAAISINGGSTYYADSVKGRFTISRDNAKNTVYLQMNSLKPEDTAVYYCAARRVQRPSTYGYWGQGTQVTVSS | high polyreactivity
QVQLVESGGGLVQAGGSLRLSCAASGLTFNYYDRGWYRQAPGKERELVAAISRSRTNTSYADSVKGRFTISRDNAKNTVYLQMNSLKPEDTAVYYCNAAGVYLAAGPYTANFNYNYWGQGTQVTVSS | low polyreactivity
QVQLVESGGGLVQAGGSLRLSCAASGLTFPLYVMGWYRQAPGKARELVATITGGGSTTYADSVKGRFTISRDNAKNTVYFQMNSLKPEDTAVYYCAADFVFVATPLRYDYWGPGTQVTVSS | low polyreactivity
QVQLVESGGGLVQAGGSLRLSCAASGLTFPRYTMGWYRQPPGKERELVAAISSSTGTTNYADSVKGRFTISRDNAKNTVYLQMNSLKPEDTAVYYCAKRVSSWLGFHLDYWGQGTQVTVSS | low polyreactivity
QVQLVESGGGLVQAGGSLRLSCAASGLTFPSYAMGWYRQAPGKERELVAAISRRSGSTYYADSVKGRFTISRDNAKNTVYLQMNSLKPEDTAVYYCTTRRGERGYWGQGTQVTVSS | high polyreactivity
QVQLVESGGGLVQAGGSLRLSCAASGLTFPTYAMGWYRQAPGKERELVAAISRIGGRTYYADSVKGRFTISRDNAKNTFYLQMNSLKPEDTAVYYCAADVIKGCVEYDYWGQGTKVTVSS | high polyreactivity
QVQLVESGGGLVQAGGSLRLSCAASGLTFPVYTMGWYRQAPGKEREFVAAITYNGGRTYYADSVKGRFTISRDNAKNTVYLQMNSLKPEDTAVYYCAAEYGTYFVRYYAGASYRYGYWGQGTQVTVSS | low polyreactivity

Sequence | polyreactivity (PSR sort gate)
QVQLVESGGGLVQAGGSLRLSCAASGLTFPYNVMGWYRQAPGKERELVASITSVGTTDYADSVKGRFTISRDNAKNTVSVLMNSLKPEVTAVYYCAADVTLFYWWYGKEDYDYWGQGTQVTVSS | low polyreactivity
QVQLVESGGGLVQAGGSLRLSCAASGLTFPYYAMGWYRQAPGKERELVAVITSGGRTYYADSVKGRFTISRDNAKNTVYLQMNSLKPEDTAVYYCAVGWRTIYGSDGDYWGQGTQVTVST | high polyreactivity
QVQLVESGGGLVQAGGSLRLSCAASGLTFPYYVMGWSRQAPGKERELVAAITTDDRTYYADSVKGRFTISRDNAKNTVYLQMNSLKPEDTAVYYCNVVIYYFNSRTVYYDYDYWGQGTQVTVSS | high polyreactivity
QVQLVESGGGLVQAGGSLRLSCAASGLTFQKYAMGWYRQAPGKERELVAAISRGGDTYYADSVKGRFTISRDNAKNTVYLQMNSLKPEDTAVYYCAASNYLYRYSHYGYWGQGTQVTVSS | high polyreactivity
QVQLVESGGGLVQAGGSLRLSCAASGLTFQLYTMGWYRQAPGKERELVAAISRSGTRTYYADSVKGRFTISRDNAQNTVYLQMNSLKPEDTAVYYCAARTDGYRNNYWGQATQVTVSS | high polyreactivity
QVQLVESGGGLVQAGGSLRLSCAASGLTFQNNAMGWYRQAPGKERELVAVITRIGGSTYYADSVKGRFTISRDNAKNTVYLQMNSLKPEDTAVYYCAAGYRTRRRLHDYWGQGTQVTVSS | high polyreactivity
QVQLVESGGGLVQAGGSLRLSCAASGLTFQTNAMGWYRQAPGKERELVAAISRRGSSTYYADSVKGRFTISRDNAKNTVYLQMNSLKPEDTAVYYCNAVRFLFIYPRYDYWGQGTQVTVSS | high polyreactivity
QVQLVESGGGLVQAGGSLRLSCAASGLTFQYNAMGWYRQAPGKERELVAVISWSGGSTYYADSVKGRFTISRDNAMNTVYLQMNSLIPEDTAVYYCNAVGFVWYFDVYSYFTEFKYDYWGQGTQVTVSS | low polyreactivity
QVQLVESGGGLVQAGGSLRLSCAASGLTFRDNAMGRYRQAPGKERELVATINSGGSTDYADSVKGRFTISRDNAKNTVYLQMNSLKPEDTAVYYCAVSREYYDRGWYSIFYWYVYWGQGTQVTVSS | low polyreactivity
QVQLVESGGGLVQAGGSLRLSCAASGLTFRIYAMGWYRQAPGKERQLVAAISYRGGSTYYADSVKGRFTISRDNAKNTVYLQMNSLKPEDTAVYYCAAGFVLNGIRYDYWGQGTQVTVSS | high polyreactivity
QVQLVESGGGLVQAGGSLRLSCAASGLTFRSYTMGWYRQAPGKERELVAAISSGGSTYYADSVKGRFTISRDNAKNTVYLQMNSLKPEDTAVYYCAAPRGHGKYYSWGQGTQVTVSS | high polyreactivity
QVQLVESGGGLVQAGGSLRLSCAASGLTFRVYAMVWYRQAPGKERELVAAISKRGGSTYYADSVKGRFTISRDNAKKTVYLQMNSLKPEENAVYSCAADSDNSVRLAGSGGNYCGQGTQVTVSS | high polyreactivity
QVQLVESGGGLVQAGGSLRLSCAASGLTFRYYAMGWYRQAPGKERELVAAITRRGSTYYADSVKGRFTISRDNAKNSVYLQMNSLKPEDTAVYYGATVTGFHSSPLRDLDYWGQGTQVTVSS | high polyreactivity
QVQLVESGGGLVQAGGSLRLSCAASGLTFRYYTMGWYRQAPGKERELVASINIRGGSTYYADSVKGRFTISRDNAKNTVYLQMNSLKAEDTSVYYCNNRYGFSFGYWGQGTQVTVSS | high polyreactivity
QVQLVESGGGLVQAGGSLRLSCAASGLTFSAYAMGWYRQAPGKERELVAAITTGGGRTYYADSVKGRFTISRDNAKNTVYLQMNSLKPEDTAVYYCNTLRAYWTYHFYGAVRDGYDYWGQGTKVTVSS | low polyreactivity
